How the values were obtained:
[1] = target: FGF receptor on Balb/c 3T3 cells
[2] = target: FGF receptor on Balb/c 3T3 cells; experiment: competition with [125I]-bFGF on Balb/c 3T3 cells, 1 ug/ml heparin
[3] = target: FGF receptor on Balb/c 3T3 cells; experiment: competition with [125I]-bFGF on Balb/c 3T3 cells, no heparin
[4] = target: FGF receptor on bovine adrenal cortex capillary endothelial (ACE) cells (bovine) (UniProt P12820)

Sequence of KR128, 129ST (P09038 134-288 K261S/R262T limits assumed): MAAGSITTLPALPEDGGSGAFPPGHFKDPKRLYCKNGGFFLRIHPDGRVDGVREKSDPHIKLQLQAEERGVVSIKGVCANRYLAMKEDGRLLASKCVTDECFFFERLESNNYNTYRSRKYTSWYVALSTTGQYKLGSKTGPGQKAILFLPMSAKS
Sequence of bFGF-C78/96S (P09038 134-288 C211S/C229S limits assumed): as the sequence (P09038 134-288 K261S/R262T limits assumed) above, with C78S, C96S, S128K, T129R counted along it

| Substance | 3T3 Mito., 1 ug/ml heparin (ED50 wild type / ED50 analog x 100%) (% of wild type) [1] | 3T3 Mito., no heparin (ED50 wild type / ED50 analog x 100%) (% of wild type) [1] | FGF-Rc Comp. (ED50 analog / ED50 wild type FGF) [2] | FGF-Rc Comp. (ED50 analog / ED50 wild type FGF) [3] | ACE Mito., 1 ug/ml heparin (ED50 wild type / ED50 analog x 100%) (% of wild type) [4] | ACE Mito., no heparin (ED50 wild type / ED50 analog x 100%) (% of wild type) [4] |
| --- | --- | --- | --- | --- | --- | --- |
| bFGF-R31S (from UniProt P09038-2) (ligand) | 100 | 100 | 0.8 | 1 | – | – |
| bFGF-N113S (from UniProt P09038-2) (ligand) | – | 160 | 1 | 1 | – | – |
| bFGF-H59N (from UniProt P09038-2) (ligand) | – | 315 | 0.4 | 0.4 | – | – |
| bFGF-R106L (from UniProt P09038-2) (ligand) | 200 | 20 | 0.13 | 0.3 | – | – |
| bFGF-R48A (from UniProt P09038) (ligand) | – | – | 0.3 | 0.32 | 84.2 | 8.9 |
| bFGF-D99A (from UniProt P09038-2) (ligand) | 280 | 150 | 0.03 | 0.04 | – | – |
| bFGF-D46A (from UniProt P09038-2) (ligand) | – | – | – | 0.5 | – | – |
| R106T (from UniProt P09038-2) (ligand) | 250 | 210 | – | – | – | – |
| bFGF-R53L (from UniProt P09038-2) (ligand) | – | – | 0.25 | 0.22 | – | – |
| bFGF-R118L (from UniProt P09038) (ligand) | – | – | 0.4 | 0.5 | – | 1.8 |
| bFGF-D28K (from UniProt P09038-2) (ligand) | – | – | 1.3 | 1 | – | – |
| bFGF-K55I (from UniProt P09038-2) (ligand) | 8 | 1 | 1.6 | 2 | – | – |
| human acidic FGF (from UniProt P05230) (ligand) | 25 | 5 | – | 0.5 | – | – |
| bFGF-K27M (from UniProt P09038-2) (ligand) | – | – | 0.2 | 0.3 | – | – |
| bFGF-K35S (from UniProt P09038-2) (ligand) | – | – | 0.05 | 0.1 | – | – |
| bFGF-K119S (from UniProt P09038-2) (ligand) | 250 | 48 | 0.25 | 0.35 | – | – |
| bFGF-D50A (from UniProt P09038-2) (ligand) | – | – | 2.5 | 2.5 | – | – |
| bFGF-E108A (from UniProt P09038-2) (ligand) | – | 180 | 2.5 | 2.5 | – | – |

| Substance | 3T3 Mito., 1 ug/ml heparin (ED50 wild type / ED50 analog x 100%) (% of wild type) [1] | 3T3 Mito., no heparin (ED50 wild type / ED50 analog x 100%) (% of wild type) [1] | FGF-Rc Comp. (ED50 analog / ED50 wild type FGF) [2] | FGF-Rc Comp. (ED50 analog / ED50 wild type FGF) [3] | ACE Mito., 1 ug/ml heparin (ED50 wild type / ED50 analog x 100%) (% of wild type) [4] | ACE Mito., no heparin (ED50 wild type / ED50 analog x 100%) (% of wild type) [4] |
| --- | --- | --- | --- | --- | --- | --- |
| bFGF-R129T (from UniProt P09038-2) (ligand) | 190 | 87 | 0.5 | 1.3 | – | – |
| bFGF-C78S (from UniProt P09038-2) (ligand) | – | – | 0.25 | 0.3 | – | – |
| bFGF-E100S (from UniProt P09038-2) (ligand) | – | – | 0.5 | 1.1 | – | – |
| KR128, 129ST (from UniProt P09038-2) (ligand) | – | 185 | 0.8 | 2 | – | – |
| bFGF-R90T (from UniProt P09038-2) (ligand) | 216 | 77 | 0.5 | 0.6 | – | – |
| K95T (from UniProt P09038-2) (ligand) | 170 | 100 | – | – | – | – |
| bFGF-E100A (from UniProt P09038-2) (ligand) | – | – | 1 | 0.8 | – | – |
| bFGF-V52K (from UniProt P09038-2) (ligand) | – | – | 0.4 | 0.5 | – | – |
| bFGF-K128E (from UniProt P09038-2) (ligand) | 140 | 200 | – | – | – | – |
| bFGF-K128S (from UniProt P09038-2) (ligand) | – | 210 | 0.25 | 0.3 | – | – |
| bFGF-Y112A (from UniProt P09038-2) (ligand) | 0.2 | 0.2 | 100 | 100 | – | – |
| bFGF-R116T (from UniProt P09038-2) (ligand) | 300 | 50 | – | 0.2 | – | – |
| bFGF-K55M (from UniProt P09038-2) (ligand) | – | – | 0.4 | 0.4 | – | – |
| bFGF-C78/96S (from UniProt P09038-2) (ligand) | 160 | 118 | 0.1 | 0.2 | – | – |
| bFGF-C96S (from UniProt P09038-2) (ligand) | – | – | 0.8 | 0.3 | – | – |
| bFGF-R48L (from UniProt P09038) (ligand) | – | – | 2 | 0.16 | – | 1.7 |
| bFGF-E105S (from UniProt P09038-2) (ligand) | 100 | 12.6 | 40 | 50 | – | – |

— patent US20030040042A1, “Recombinant fibroblast growth factors” (published 2003)
